{"source": "patent US20180066242A1", "molecular_target": "dCas9(C)-FKBP-2×NLS-VP64 (split-4, N863A) (Streptococcus pyogenes)", "assay": "cell-based or functional assay"}
{"substance": "dCas9(N)-FRB-2×NES (split-4, D10A) (from UniProt Q99ZW2 1-535; P42345 2021-2113; Q05397 518-525)", "values": [{"measurement": "ASCL1 mRNA by qPCR, +rapamycin/-rapamycin ratio", "value": 77}, {"measurement": "IL1RN mRNA by qPCR, +rapamycin/-rapamycin ratio", "value": 649}, {"measurement": "MYOD1 mRNA by qPCR, +rapamycin/-rapamycin ratio", "value": 29}]}
